Results from US20120058906A1.

Tests used:
[1] = molecular target: rHuman P-Cadherin/Fc Chimera, CF (R&D Systems Cat#861-PC) (human) (UniProt P22223); test: ECL (MSD multi-spot), Fab […]; blank 162
[2] = molecular target: rHuman Erythropoietin R/Fc Chimera, CF (R&D Systems Cat#963-ER) (human) (UniProt P19235); test: ECL (MSD multi-spot), Fab […]; blank 162
[3] = molecular target: rHuman Notch-1/Fc Chimera, CF (R&D Systems Cat#3647-TK) (human) (UniProt P46531); test: ECL (MSD multi-spot), Fab […]; blank 162
[4] = molecular target: rHuman ErbB2/Fc Chimera, CF (R&D Systems Cat#1129-ER) (human) (UniProt P04626); test: ECL (MSD multi-spot), Fab […]; blank 162
[5] = molecular target: rHuman EGF R/Fc Chimera, CF (R&D Systems Cat#344-ER) (human) (UniProt P00533); test: ECL (MSD multi-spot), Fab […]; blank 162
[6] = molecular target: rHuman CD44/Fc Chimera, CF (R&D Systems Cat#3660-CD) (human) (UniProt P16070); test: ECL (MSD multi-spot), Fab […]; blank 162
[7] = molecular target: rHuman HGF R/c-MET/Fc Chimera, CF (R&D Systems Cat#358-MT/CF) (human) (UniProt P08581); test: ECL (MSD multi-spot), Fab […]; blank 162
[8] = molecular target: rHuman IGF-1 sR (IGF-1 sR), CF (R&D Systems Cat#391-GR) (human) (UniProt P08069); test: ECL (MSD multi-spot), Fab […]; blank 162
[9] = molecular target: rHuman HGF R/c-MET/Fc Chimera, CF (R&D Systems Cat#358-MT/CF) (human) (UniProt P08581); test: ECL (MSD multi-spot), Fab 170 nM; blank 262
[10] = molecular target: rHuman IGF-1 sR (IGF-1 sR), CF (R&D Systems Cat#391-GR) (human) (UniProt P08069); test: ECL (MSD multi-spot), Fab 170 nM; blank 262

Chain of rHuman Erythropoietin R/Fc Chimera, CF (R&D Systems Cat#963-ER) (human) (P19235 25-250, change not shown): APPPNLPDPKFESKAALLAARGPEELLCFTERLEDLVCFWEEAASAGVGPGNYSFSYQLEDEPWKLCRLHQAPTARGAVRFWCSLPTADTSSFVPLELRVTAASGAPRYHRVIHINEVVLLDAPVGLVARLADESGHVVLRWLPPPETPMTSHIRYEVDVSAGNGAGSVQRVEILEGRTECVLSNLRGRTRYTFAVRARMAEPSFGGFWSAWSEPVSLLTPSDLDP

With “Fab VH4-34_IGHD7-27*01_IGHJ4*01 & V4-6_IGLJ4*01” the ECL signal [1] was 421 ECL signal, the ECL signal [2] was 494 ECL signal and the ECL signal [3] was 649 ECL signal. The ECL signal [4] was 866 ECL signal, the ECL signal [5] was 528 ECL signal and the ECL signal [6] was 522 ECL signal. The ECL signal [7] was 607 ECL signal, the ECL signal [8] was 646 ECL signal and the ECL signal [9] was 757 ECL signal. For the same substance, the ECL signal [10] was 832 ECL signal.
